Molecular target: Stargazin-derived probe 12 (Rattus norvegicus, UniProt Q71RJ2, N-acetyl, X=Dab(4-DMAP), NRR added)
Assay: fluorescence titration

Kd: 10 µM
B1: Shank3 PDZ (protein)
chain: DDKVAILQKRDHEGFGFVLRGAKAETPIEEFTPTPAFPALQYLESVDVEGVAWKAGLRTGDFLIEVNGVNVVKVGHKQVVGLIRQGGNRLVMKVVSVTRKP
